T1: FcγRIIb (human, UniProt P31994 43-217)
T1 construct: extracellular domain; also called FcgRIIb; 2b
T1 sequence (looked up): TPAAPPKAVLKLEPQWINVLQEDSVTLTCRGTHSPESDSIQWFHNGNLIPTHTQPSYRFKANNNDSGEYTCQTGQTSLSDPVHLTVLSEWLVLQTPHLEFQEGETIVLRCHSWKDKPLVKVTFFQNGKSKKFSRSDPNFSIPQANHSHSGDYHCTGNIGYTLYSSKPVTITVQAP

T2: FcγRIIa H (FcgRIIa type H, His at position 131), extracellular domain with C-terminal His tag (human, UniProt P12318 34-217)
T2 construct: extracellular domain; also called 2aH; FcgRIIa H; not shown: His tag at the C terminus
T2 sequence (looked up): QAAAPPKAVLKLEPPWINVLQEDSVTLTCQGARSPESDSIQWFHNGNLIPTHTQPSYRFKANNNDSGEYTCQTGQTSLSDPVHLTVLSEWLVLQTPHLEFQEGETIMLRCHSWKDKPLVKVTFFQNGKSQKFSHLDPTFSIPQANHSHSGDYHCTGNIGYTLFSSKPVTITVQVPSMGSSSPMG

T3: FcγRIIb, extracellular domain with C-terminal His tag (human, UniProt P31994 43-217)
T3 construct: extracellular domain; also called 2b; FcgRIIb; not shown: His tag at the C terminus
T3 sequence (looked up): T1 sequence (looked up)

B1: GpH7-A5/GpH7-B3 variant V266_13S/GpL16-k0 (antibody, human IgG1, kappa)
heavy 1: not shown
heavy 2: not shown
light: DIVMTQSPLSLPVTPGEPASISCQASESLVHSNRNTYLHWYLQKPGQSPQLLIYKVSNRFSGVPDRFSGSGSGTDFTLKISRVEAEDVGVYYCSQNTHVPPTFGQGTKVEIERTVAAPSVFIFPPSDEQLKSGTASVVCLLNNFYPREAKVQWKVDNALQSGNSQESVTEQDSKDSTYSLSSTLTLSKADYEKHKVYACEVTHQGLSSPVTKSFNRGEC
notes: mutation in the GpH7-B3 chain only; also called He Ab
B2: GpH7-A5/GpH7-B3 variant V266_14T/GpL16-k0 (antibody, human IgG1, kappa)
heavy 1: not shown
heavy 2: not shown
light: B1 light
notes: as for B1
B3: GpH7-A5/GpH7-B3 variant V266_15Y/GpL16-k0 (antibody, human IgG1, kappa)
heavy 1: not shown
heavy 2: not shown
light: B1 light
notes: as for B1
B4: GpH7-A5/GpH7-B3 variant V266_16H/GpL16-k0 (antibody, human IgG1, kappa)
heavy 1: not shown
heavy 2: not shown
light: B1 light
notes: as for B1
B5: GpH7-A5/GpH7-B3 variant V266_18N/GpL16-k0 (antibody, human IgG1, kappa)
heavy 1: not shown
heavy 2: not shown
light: B1 light
notes: as for B1
B6: GpH7-A5/GpH7-B3 variant V266_19Q/GpL16-k0 (antibody, human IgG1, kappa)
heavy 1: not shown
heavy 2: not shown
light: B1 light
notes: as for B1
B7: GpH7-A5/GpH7-B3 variant S267_01G/GpL16-k0 (antibody, human IgG1, kappa)
heavy 1: not shown
heavy 2: not shown
light: B1 light
notes: He Ab; alteration in one H chain only; also called He Ab
B8: GpH7-A5/GpH7-B3 variant H268_01G/GpL16-k0 (antibody, human IgG1, kappa)
heavy 1: not shown
heavy 2: not shown
light: B1 light
notes: as for B7
B9: GpH7-A5/GpH7-B3 variant H268_02A/GpL16-k0 (antibody, human IgG1, kappa)
heavy 1: not shown
heavy 2: not shown
light: B1 light
notes: as for B7
B10: GpH7-A5/GpH7-B3 variant H268_05P/GpL16-k0 (antibody, human IgG1, kappa)
heavy 1: not shown
heavy 2: not shown
light: B1 light
notes: as for B7
B11: GpH7-A5/GpH7-B3 variant H268_09D/GpL16-k0 (antibody, human IgG1, kappa)
heavy 1: not shown
heavy 2: not shown
light: B1 light
notes: as for B7
B12: GpH7-A5/GpH7-B3 variant H268_10E/GpL16-k0 (antibody, human IgG1, kappa)
heavy 1: not shown
heavy 2: not shown
light: B1 light
notes: as for B7
B13: GpH7-A5/GpH7-B3 variant H268_13S/GpL16-k0 (antibody, human IgG1, kappa)
heavy 1: not shown
heavy 2: not shown
light: B1 light
notes: as for B7
B14: GpH7-A5/GpH7-B3 variant H268_18N/GpL16-k0 (antibody, human IgG1, kappa)
heavy 1: not shown
heavy 2: not shown
light: B1 light
notes: as for B7
B15: GpH7-A5/GpH7-B3 variant H268_19Q/GpL16-k0 (antibody, human IgG1, kappa)
heavy 1: not shown
heavy 2: not shown
light: B1 light
notes: as for B7
B16: GpH7-A5/GpH7-B3 variant K326_02A/GpL16-k0 (antibody, human IgG1, kappa)
heavy 1: not shown
heavy 2: not shown
light: B1 light
notes: as for B7
B17: GpH7-A5/GpH7-B3 variant K326_03V/GpL16-k0 (antibody, human IgG1, kappa)
heavy 1: not shown
heavy 2: not shown
light: B1 light
notes: as for B7
B18: GpH7-A5/GpH7-B3 variant P271_01G/GpL16-k0 (antibody, human IgG1, kappa)
heavy 1: not shown
heavy 2: not shown
light: B1 light
notes: as for B7
B19: GpH7-A5/GpH7-B3 variant P271_09D/GpL16-k0 (antibody, human IgG1, kappa)
heavy 1: not shown
heavy 2: not shown
light: B1 light
notes: as for B7

Biological target: T4, FcγRIIIa (human, UniProt P08637 17-208)
T4 construct: extracellular domain; also called FcgRIIIa; 3a
T4 sequence (P08637 17-208): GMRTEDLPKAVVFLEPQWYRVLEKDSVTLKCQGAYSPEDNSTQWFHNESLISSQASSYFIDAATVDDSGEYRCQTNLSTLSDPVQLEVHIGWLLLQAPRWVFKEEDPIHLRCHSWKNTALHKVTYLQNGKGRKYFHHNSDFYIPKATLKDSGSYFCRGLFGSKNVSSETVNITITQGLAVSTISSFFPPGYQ
Assay: SPR (Biacore), relative binding

Question: Which He/Con_3a does the source give for B1 here?
Answer: The He/Con_3a was 28.1 % of GpH7-A5/GpH7-B3/GpL16-k0.

Question: Which He/Con_3a does the source give for B2 here?
Answer: The He/Con_3a was 39.4 % of GpH7-A5/GpH7-B3/GpL16-k0.

Question: Which He/Con_3a does the source give for B3 here?
Answer: The He/Con_3a was 14.5 % of GpH7-A5/GpH7-B3/GpL16-k0.

Question: Which He/Con_3a does the source give for B4 here?
Answer: Its He/Con_3a is 21.3 % of GpH7-A5/GpH7-B3/GpL16-k0.

Question: With B5 as the binder, how does the He/Con_3a read?
Answer: The He/Con_3a was 30.4 % of GpH7-A5/GpH7-B3/GpL16-k0.

Question: How did the He/Con_3a turn out when B6 was run?
Answer: Its He/Con_3a is 34.7 % of GpH7-A5/GpH7-B3/GpL16-k0.

Biological target: T1, FcγRIIb
Assay: SPR (Biacore), relative binding

Question: B1 was tested. Which He/Con_2b did it give?
Answer: Its He/Con_2b is 54.4 % of GpH7-A5/GpH7-B3/GpL16-k0.

Question: With B2 as the binder, how does the He/Con_2b read?
Answer: Its He/Con_2b is 82.3 % of GpH7-A5/GpH7-B3/GpL16-k0.

Question: With B3 as the binder, how does the He/Con_2b read?
Answer: The He/Con_2b was 49.4 % of GpH7-A5/GpH7-B3/GpL16-k0.

Question: For B4, which He/Con_2b is on record?
Answer: The He/Con_2b was 57.2 % of GpH7-A5/GpH7-B3/GpL16-k0.

Question: For B5, which He/Con_2b is on record?
Answer: Its He/Con_2b is 69.7 % of GpH7-A5/GpH7-B3/GpL16-k0.

Question: With B6 as the binder, how does the He/Con_2b read?
Answer: The He/Con_2b was 89.2 % of GpH7-A5/GpH7-B3/GpL16-k0.

Biological target: T4, FcγRIIIa
Assay: SPR; He/Con_3a divided by He/Con_2b (FcγRIIIa against FcγRIIb)

Question: B1 was tested. Which “He_3a/2b (IIIa/IIb)” value did it give?
Answer: Its value is 0.52 ratio.

Question: How did the “He_3a/2b (IIIa/IIb)” value turn out when B2 was run?
Answer: Its value is 0.48 ratio.

Question: How did the “He_3a/2b (IIIa/IIb)” value turn out when B3 was run?
Answer: The value was 0.29 ratio.

Question: For B4, which “He_3a/2b (IIIa/IIb)” value is on record?
Answer: Its value is 0.37 ratio.

Question: For B5, which “He_3a/2b (IIIa/IIb)” value is on record?
Answer: Its value is 0.44 ratio.

Question: How did the “He_3a/2b (IIIa/IIb)” value turn out when B6 was run?
Answer: Its value is 0.39 ratio.

Biological target: T2, FcγRIIa H (FcgRIIa type H, His at …)
Assay: SPR (Biacore), relative binding, GpH7-A5/GpH7-B3/GpL16-k0 = 100

Question: B7 was tested. Which He/Con_2aH did it give?
Answer: The He/Con_2aH was 71.3 % of control.

Question: Which He/Con_2aH does the source give for B8 here?
Answer: Its He/Con_2aH is 99.2 % of control.

Question: For B9, which He/Con_2aH is on record?
Answer: The He/Con_2aH was 114 % of control.

Question: B10 was tested. Which He/Con_2aH did it give?
Answer: The He/Con_2aH was 81.8 % of control.

Question: For B11, which He/Con_2aH is on record?
Answer: Its He/Con_2aH is 133 % of control.

Question: Which He/Con_2aH does the source give for B12 here?
Answer: Its He/Con_2aH is 124 % of control.

Question: B13 was tested. Which He/Con_2aH did it give?
Answer: The He/Con_2aH was 112 % of control.

Question: With B14 as the binder, how does the He/Con_2aH read?
Answer: Its He/Con_2aH is 112 % of control.

Question: With B15 as the binder, how does the He/Con_2aH read?
Answer: The He/Con_2aH was 102 % of control.

Question: For B16, which He/Con_2aH is on record?
Answer: The He/Con_2aH was 106 % of control.

Question: With B17 as the binder, how does the He/Con_2aH read?
Answer: Its He/Con_2aH is 97 % of control.

Question: B18 was tested. Which He/Con_2aH did it give?
Answer: Its He/Con_2aH is 107 % of control.

Question: With B19 as the binder, how does the He/Con_2aH read?
Answer: Its He/Con_2aH is 70.1 % of control.

Biological target: T3, FcγRIIb, extracellular domain with …
Assay: as above

Question: For B7, which He/Con_2b is on record?
Answer: Its He/Con_2b is 105 % of control.

Question: B8 was tested. Which He/Con_2b did it give?
Answer: The He/Con_2b was 144 % of control.

Question: With B9 as the binder, how does the He/Con_2b read?
Answer: Its He/Con_2b is 167 % of control.

Question: Which He/Con_2b does the source give for B10 here?
Answer: The He/Con_2b was 116 % of control.

Question: For B11, which He/Con_2b is on record?
Answer: Its He/Con_2b is 239 % of control.

Question: For B12, which He/Con_2b is on record?
Answer: The He/Con_2b was 230 % of control.

Question: Which He/Con_2b does the source give for B13 here?
Answer: Its He/Con_2b is 160 % of control.

Question: With B14 as the binder, how does the He/Con_2b read?
Answer: The He/Con_2b was 156 % of control.

Question: With B15 as the binder, how does the He/Con_2b read?
Answer: Its He/Con_2b is 133 % of control.

Question: With B16 as the binder, how does the He/Con_2b read?
Answer: Its He/Con_2b is 139 % of control.

Question: How did the He/Con_2b turn out when B17 was run?
Answer: Its He/Con_2b is 175 % of control.

Question: Which He/Con_2b does the source give for B18 here?
Answer: The He/Con_2b was 193 % of control.

Question: B19 was tested. Which He/Con_2b did it give?
Answer: Its He/Con_2b is 120 % of control.

Biological target: T2, FcγRIIa H (FcgRIIa type H, His at …)
Assay: SPR; He/Con_2aH divided by He/Con_2b (FcγRIIa H binding over FcγRIIb binding)

Question: Which “He_2aH/2b (IIaH/IIb)” value does the source give for B7 here?
Answer: Its value is 0.68 ratio.

Question: For B8, which “He_2aH/2b (IIaH/IIb)” value is on record?
Answer: The value was 0.69 ratio.

Question: Which “He_2aH/2b (IIaH/IIb)” value does the source give for B9 here?
Answer: Its value is 0.68 ratio.

Question: B10 was tested. Which “He_2aH/2b (IIaH/IIb)” value did it give?
Answer: Its value is 0.7 ratio.

Question: With B11 as the binder, how does the “He_2aH/2b (IIaH/IIb)” value read?
Answer: Its value is 0.55 ratio.

Question: B12 was tested. Which “He_2aH/2b (IIaH/IIb)” value did it give?
Answer: Its value is 0.54 ratio.

Question: Which “He_2aH/2b (IIaH/IIb)” value does the source give for B13 here?
Answer: The value was 0.7 ratio.

Question: Which “He_2aH/2b (IIaH/IIb)” value does the source give for B14 here?
Answer: The value was 0.72 ratio.

Question: B15 was tested. Which “He_2aH/2b (IIaH/IIb)” value did it give?
Answer: Its value is 0.77 ratio.

Question: For B16, which “He_2aH/2b (IIaH/IIb)” value is on record?
Answer: The value was 0.76 ratio.

Question: For B17, which “He_2aH/2b (IIaH/IIb)” value is on record?
Answer: Its value is 0.55 ratio.

Question: With B18 as the binder, how does the “He_2aH/2b (IIaH/IIb)” value read?
Answer: Its value is 0.55 ratio.

Question: For B19, which “He_2aH/2b (IIaH/IIb)” value is on record?
Answer: Its value is 0.58 ratio.

— patent publication US20150344570A1 (published 2015)
